For this assay, the target named is RBBP4, recombinant, for fluorescence polarization (human), Q09028. Description: fluorescence polarisation; competitive: unlabeled peptide (1.0–0.0 mM series) added to preformed complex of 1 nM FAM tracer and 40 nM RBBP4; 50 mM Tris-HCl pH 7.5, 150 mM NaCl, 0.02% Triton X-100; read after 60 min; ki from IC50.
Sequence of RBBP4, recombinant, for fluorescence polarization (human), Q09028 (Q09028 whole entry): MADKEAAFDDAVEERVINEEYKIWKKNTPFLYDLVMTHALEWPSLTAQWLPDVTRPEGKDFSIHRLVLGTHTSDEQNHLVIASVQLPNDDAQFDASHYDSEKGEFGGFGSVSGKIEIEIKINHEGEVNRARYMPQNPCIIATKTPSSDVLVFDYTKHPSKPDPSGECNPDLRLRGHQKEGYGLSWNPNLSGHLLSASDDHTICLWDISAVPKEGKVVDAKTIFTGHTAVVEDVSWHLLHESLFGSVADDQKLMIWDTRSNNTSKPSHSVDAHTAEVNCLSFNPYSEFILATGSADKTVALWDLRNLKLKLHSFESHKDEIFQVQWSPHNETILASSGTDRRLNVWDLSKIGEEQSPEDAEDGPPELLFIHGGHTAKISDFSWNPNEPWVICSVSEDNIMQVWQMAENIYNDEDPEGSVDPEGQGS

With KHRRKQKTPKKF (modifications not checked) [ZNF512B NIM peptide (unlabeled ZNF512B iNIM)], the Ki was found to be 19 nM.
